Results taken from publication PMC6914384 (Nature, 2018).
No end group written: not given here.

T1: p300 BPΔR module (BRP 1048-1282 with the RING domain 1169-1241 replaced by a single glycine) (UniProt Q09472)
T1 chain: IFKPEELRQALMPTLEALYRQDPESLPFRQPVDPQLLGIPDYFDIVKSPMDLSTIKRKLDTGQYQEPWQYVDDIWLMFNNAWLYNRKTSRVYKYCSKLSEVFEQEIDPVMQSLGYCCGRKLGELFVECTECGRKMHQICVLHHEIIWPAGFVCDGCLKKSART

T2: p300 BRP module (bromodomain-RING-PHD), residues 1048-1282 (UniProt Q09472 1048-1282)
T2 sequence: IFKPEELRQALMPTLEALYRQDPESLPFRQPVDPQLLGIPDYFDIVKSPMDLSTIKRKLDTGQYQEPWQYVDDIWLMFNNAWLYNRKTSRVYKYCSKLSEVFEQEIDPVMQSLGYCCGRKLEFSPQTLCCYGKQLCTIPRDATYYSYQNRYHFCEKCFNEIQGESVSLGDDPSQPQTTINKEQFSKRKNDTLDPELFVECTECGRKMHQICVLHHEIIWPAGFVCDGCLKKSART


Experiments:
[1] = biological target: T1, p300 BPΔR module (BRP 1048-1282 with …); experiment: crystal structure
[2] = biological target: T2, p300 BRP module (bromodomain-RING-PHD), …; experiment: ITC

Binder | binding result [1] | Kd [2] [mM] | stoichiometry N [2]
GLGK(Ac)GGAK(Ac)RHR [11-mer histone peptide H4 (10-20) with acetylated K12 and K16] | binds |  | 
ARTKQTQRK(Ac)STGGK(Ac)APRKQL [H3 K9acK14ac (1-20) peptide] |  | 0.578 | 1.06
ARTKQTQRKSTGGK(Ac)APRKQL [H3 K14ac (1-20) peptide] |  | 1.76 | 1.13
